Data from PMC13101046 (Journal of molecular biology, 2025).
Values joined by “and” are separate entries in the source; they are usually repeats but may differ in a detail not shown here. Equal entries are not always repeated.

T1: RecB (E. coli, UniProt P08394 1-1180)
T1 construct: RecB, E. coli, full length (134 kDa); also called full length RecB; source: purified as part of the RecBCD hetero-trimer
T1 sequence (looked up): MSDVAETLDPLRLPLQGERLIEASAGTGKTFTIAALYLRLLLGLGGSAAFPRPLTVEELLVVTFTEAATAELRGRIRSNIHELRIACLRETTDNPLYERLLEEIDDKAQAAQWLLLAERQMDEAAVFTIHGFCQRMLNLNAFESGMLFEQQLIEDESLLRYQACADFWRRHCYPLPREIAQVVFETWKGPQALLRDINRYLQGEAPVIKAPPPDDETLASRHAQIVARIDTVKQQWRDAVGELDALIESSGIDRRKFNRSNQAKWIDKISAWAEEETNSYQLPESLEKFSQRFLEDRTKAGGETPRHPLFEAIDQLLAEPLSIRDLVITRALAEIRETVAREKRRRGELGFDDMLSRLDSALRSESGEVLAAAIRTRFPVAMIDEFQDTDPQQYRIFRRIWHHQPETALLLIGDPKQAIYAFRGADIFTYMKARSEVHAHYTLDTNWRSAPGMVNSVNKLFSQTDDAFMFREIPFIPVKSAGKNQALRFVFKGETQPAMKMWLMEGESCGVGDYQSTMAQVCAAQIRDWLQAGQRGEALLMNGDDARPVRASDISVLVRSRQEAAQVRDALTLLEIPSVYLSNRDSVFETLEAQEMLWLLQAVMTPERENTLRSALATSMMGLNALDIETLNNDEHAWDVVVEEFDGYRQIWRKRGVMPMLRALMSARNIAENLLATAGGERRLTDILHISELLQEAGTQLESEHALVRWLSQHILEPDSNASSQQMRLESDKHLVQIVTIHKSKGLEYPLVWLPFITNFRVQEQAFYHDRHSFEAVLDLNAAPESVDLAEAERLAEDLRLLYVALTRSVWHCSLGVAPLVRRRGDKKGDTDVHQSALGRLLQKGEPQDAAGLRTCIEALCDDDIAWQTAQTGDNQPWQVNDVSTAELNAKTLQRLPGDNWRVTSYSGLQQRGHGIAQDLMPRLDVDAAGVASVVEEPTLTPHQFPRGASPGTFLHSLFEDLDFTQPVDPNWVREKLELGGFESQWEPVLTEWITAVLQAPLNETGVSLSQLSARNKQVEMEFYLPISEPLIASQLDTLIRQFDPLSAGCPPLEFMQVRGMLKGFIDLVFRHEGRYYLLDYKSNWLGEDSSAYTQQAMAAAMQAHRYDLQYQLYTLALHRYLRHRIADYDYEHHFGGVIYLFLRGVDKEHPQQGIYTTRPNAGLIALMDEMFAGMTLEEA

B1: RecD (natural protein, E. coli)
chain: MKLQKQLLEAVEHKQLRPLDVQFALTVAGDEHPAVTLAAALLSHDAGEGHVCLPLSRLENNEASHPLLATCVSEIGELQNWEECLLASQAVSRGDEPTPMILCGDRLYLNRMWCNERTVARFFNEVNHAIEVDEALLAQTLDKLFPVSDEINWQKVAAAVALTRRISVISGGPGTGKTTTVAKLLAALIQMADGERCRIRLAAPTGKAAARLTESLGKALRQLPLTDEQKKRIPEDASTLHRLLGAQPGSQRLRHHAGNPLHLDVLVVDEASMIDLPMMSRLIDALPDHARVIFLGDRDQLASVEAGAVLGDICAYANAGFTAERARQLSRLTGTHVPAGTGTEAASLRDSLCLLQKSYRFGSDSGIGQLAAAINRGDKTAVKTVFQQDFTDIEKRLLQSGEDYIAMLEEALAGYGRYLDLLQARAEPDLIIQAFNEYQLLCALREGPFGVAGLNERIEQFMQQKRKIHRHPHSRWYEGRPVMIARNDSALGLFNGDIGIALDRGQGTRVWFAMPDGNIKSVQPSRLPEHETTWAMTVHKSQGSEFDHAALILPSQRTPVVTRELVYTAVTRARRRLSLYADERILSAAIATRTERRSGLAALFSSRE
notes: RecD, E. coli, wild type; Called wild type; Most of RecD has only weak density in the structures solved here; source: purified as part of the RecBCD or RecB^ΔNucCD hetero-trimer
B2: RecB^ΔNuc (RecB with the nuclease domain, residues 930-1180, deleted) (domain or fragment, E. coli, UniProt P08394 1-929, looked up)
chain: MSDVAETLDPLRLPLQGERLIEASAGTGKTFTIAALYLRLLLGLGGSAAFPRPLTVEELLVVTFTEAATAELRGRIRSNIHELRIACLRETTDNPLYERLLEEIDDKAQAAQWLLLAERQMDEAAVFTIHGFCQRMLNLNAFESGMLFEQQLIEDESLLRYQACADFWRRHCYPLPREIAQVVFETWKGPQALLRDINRYLQGEAPVIKAPPPDDETLASRHAQIVARIDTVKQQWRDAVGELDALIESSGIDRRKFNRSNQAKWIDKISAWAEEETNSYQLPESLEKFSQRFLEDRTKAGGETPRHPLFEAIDQLLAEPLSIRDLVITRALAEIRETVAREKRRRGELGFDDMLSRLDSALRSESGEVLAAAIRTRFPVAMIDEFQDTDPQQYRIFRRIWHHQPETALLLIGDPKQAIYAFRGADIFTYMKARSEVHAHYTLDTNWRSAPGMVNSVNKLFSQTDDAFMFREIPFIPVKSAGKNQALRFVFKGETQPAMKMWLMEGESCGVGDYQSTMAQVCAAQIRDWLQAGQRGEALLMNGDDARPVRASDISVLVRSRQEAAQVRDALTLLEIPSVYLSNRDSVFETLEAQEMLWLLQAVMTPERENTLRSALATSMMGLNALDIETLNNDEHAWDVVVEEFDGYRQIWRKRGVMPMLRALMSARNIAENLLATAGGERRLTDILHISELLQEAGTQLESEHALVRWLSQHILEPDSNASSQQMRLESDKHLVQIVTIHKSKGLEYPLVWLPFITNFRVQEQAFYHDRHSFEAVLDLNAAPESVDLAEAERLAEDLRLLYVALTRSVWHCSLGVAPLVRRRGDKKGDTDVHQSALGRLLQKGEPQDAAGLRTCIEALCDDDIAWQTAQTGDNQPWQVNDVSTAELNAKTLQRLPGDNWRVTSYSGLQQRGHGIAQDLMPRLDVDAA
notes: RecB, E. coli; the C-terminal nuclease domain RecB^Nuc (RecB930-1180) is deleted, the deletion starts at amino acid 930 and leaves the whole linker (870-929) intact; runs at 105 kDa; Subunit of the RecB^ΔNucCD hetero-trimer; source: purified to homogeneity as part of the RecB^ΔNucCD hetero-trimer, as described previously for RecBCD
B3: RecC (natural protein, E. coli)
chain: MLRVYHSNRLDVLEALMEFIVERERLDDPFEPEMILVQSTGMAQWLQMTLSQKFGIAANIDFPLPASFIWDMFVRVLPEIPKESAFNKQSMSWKLMTLLPQLLEREDFTLLRHYLTDDSDKRKLFQLSSKAADLFDQYLVYRPDWLAQWETGHLVEGLGEAQAWQAPLWKALVEYTHQLGQPRWHRANLYQRFIETLESATTCPPGLPSRVFICGISALPPVYLQALQALGKHIEIHLLFTNPCRYYWGDIKDPAYLAKLLTRQRRHSFEDRELPLFRDSENAGQLFNSDGEQDVGNPLLASWGKLGRDYIYLLSDLESSQELDAFVDVTPDNLLHNIQSDILELENRAVAGVNIEEFSRSDNKRPLDPLDSSITFHVCHSPQREVEVLHDRLLAMLEEDPTLTPRDIIVMVADIDSYSPFIQAVFGSAPADRYLPYAISDRRARQSHPVLEAFISLLSLPDSRFVSEDVLALLDVPVLAARFDITEEGLRYLRQWVNESGIRWGIDDDNVRELELPATGQHTWRFGLTRMLLGYAMESAQGEWQSVLPYDESSGLIAELVGHLASLLMQLNIWRRGLAQERPLEEWLPVCRDMLNAFFLPDAETEAAMTLIEQQWQAIIAEGLGAQYGDAVPLSLLRDELAQRLDQERISQRFLAGPVNICTLMPMRSIPFKVVCLLGMNDGVYPRQLAPLGFDLMSQKPKRGDRSRRDDDRYLFLEALISAQQKLYISYIGRSIQDNSERFPSVLVQELIDYIGQSHYLPGDEALNCDESEARVKAHLTCLHTRMPFDPQNYQPGERQSYAREWLPAASQAGKAHSEFVQPLPFTLPETVPLETLQRFWAHPVRAFFQMRLQVNFRTEDSEIPDTEPFILEGLSRYQINQQLLNALVEQDDAERLFRRFRAAGDLPYGAFGEIFWETQCQEMQQLADRVIACRQPGQSMEIDLACNGVQITGWLPQVQPDGLLRWRPSLLSVAQGMQLWLEHLVYCASGGNGESRLFLRKDGEWRFPPLAAEQALHYLSQLIEGYREGMSAPLLVLPESGGAWLKTCYDAQNDAMLDDDSTLQKARTKFLQAYEGNMMVRGEGDDIWYQRLWRQLTPETMEAIVEQSQRFLLPLFRFNQS
notes: RecC, E. coli, wild type; Called wild type; source: purified as part of the RecBCD or RecB^ΔNucCD hetero-trimer

Experiments:
RecBCD (E. coli) = experiment: competition fluorescence titration; settings: Buffer M275-10: 20 mM MOPS pH 7.0, 275 mM NaCl, 10 mM MgCl2, 25 °C (M50-10: 50 mM NaCl); cryo-EM buffer 20 mM Tris pH 7.4, 50 mM NaCl, 4 mM MgCl2
[1] = biological target: T2, RecBΔNucCD RecB:del930-1180 (E. coli) (UniProt P08394+P07648+P04993); experiment: competition fluorescence titration; settings: Buffer M275-10: 20 mM MOPS pH 7.0, 275 mM NaCl, 10 mM MgCl2, 25 °C (M50-10: 50 mM NaCl); cryo-EM buffer 20 mM Tris pH 7.4, 50 mM NaCl, 4 mM MgCl2
[2] = biological target: T2, RecBΔNucCD RecB:del930-1180 (E. coli); experiment: ITC; settings: Buffer M275-10: 20 mM MOPS pH 7.0, 275 mM NaCl, 10 mM MgCl2, 25 °C (M50-10: 50 mM NaCl); cryo-EM buffer 20 mM Tris pH 7.4, 50 mM NaCl, 4 mM MgCl2
RecC = biological target: B3; experiment: AUC; sedimentation velocity, c(s) distribution; 200 nM protein, Buffer M50-10 (20 mM MOPS pH 7.0, 50 mM NaCl, 10 mM MgCl2), 25 °C, 42,000 rpm, absorbance at 280 nm; settings: both partners purified
RecB = biological target: T1, RecB; experiment: as above; settings: both partners purified

Row | Molecule | Ka (RecBCD (E. coli)) [M⁻¹] | Ka [1] [M⁻¹] | Ka [2] | other results
1 | 5'-dT15 | 2.3e+08 | 6.5e+08 |  | 
2 | dT25-dT25 |  |  | > 1e+09 M⁻¹ | 
3 | dT6-dT6 |  |  | > 1e+09 M⁻¹ | 
4 | dT4-dT4 |  |  | > 1e+09 M⁻¹ | 
5 | blunt ended 60 bp DNA | 1.4e+07 | 4.7e+07 |  | 
6 | 3'-dT6 | 1.1e+08 | 9.5e+08 |  | 
7 | 5'-dT6 | 1.1e+08 | 1.4e+08 |  | 
8 | 3'-dT8 |  | 7.2e+08 |  | 
9 | 3'-dT4 | 4.7e+07 | 3.3e+08 |  | 
10 | 3'-dT10 | 5e+07 | 5.9e+08 |  | 
11 | 3'-dT15 | 1e+07 | 6e+07 |  | 
12 | 5'-dT8 |  | 2.3e+08 |  | 
13 | 3'-dT2 | 2.1e+07 | 9.6e+07 |  | 
14 | dT15-dT15 |  |  | > 1e+09 M⁻¹ | 
15 | dT10-dT10 |  |  | > 1e+09 M⁻¹ | 
16 | 5'-dT10 | 2.2e+08 | 6.4e+08 |  | 
17 | dT20-dT20 |  |  | > 1e+09 M⁻¹ | 
18 | dT30-dT30 |  |  | 6.8e+08 M⁻¹ and > 1e+09 M⁻¹ | 
19 | B1 |  |  |  | binding result (RecC): binds
20 | B2 |  |  |  | binding result (RecC): binds
21 | B3 |  |  |  | binding result (RecB): binds
